Source: patent publication US20230057012A1, “TGFB INHIBITORS AND USE THEREOF” (Scholar Rock, Inc., priority 2020, published 2023)
Entries after “also recorded” stand apart in the source; their conditions may differ.

Experiments:
hGARP-proTGFβ1 [1] = target: T1, hGARP-proTGFβ1 (Homo sapiens, UniProt P01137); assay: Octet binding kinetics (BLI); conditions: Fab in solution, immobilized biotinylated antigen
T1 construct: biotin (the antigen complex is biotinylated); made in house
Procedure: (§1) The table below exemplifies binding kinetics of the listed antibodies (e.g., Fabs) obtained by OCTET®-based binding assays. The experiments were conducted with immobilized, biotinylated antigen and Fab fragments (e.g., test antibodies) in solution.
(§2) In some embodiments, the binding affinity of an antibody, or antigen-binding portion thereof, to an antigen (e.g., protein complex), such as presenting molecule-proTGFβ1 complexes, is determined using an Octet assay. In some embodiments, an Octet assay is an assay that determines one or more a kinetic parameters indicative of binding between an antibody and antigen. In some embodiments, an OCTET® system (FORTEBIO®, Menlo Park, Calif.) is used to determine the binding affinity of an antibody, or antigen-binding portion thereof, to presenting molecule-proTGFβ1 complexes. For example, binding affinities of antibodies may be determined using the FORTEBIO® Octet QKe dip and read label free assay system utilizing bio-layer interferometry. In some embodiments, antigens are immobilized to biosensors (e.g., streptavidin-coated biosensors) and the […] are presented in solution at high concentration (50 μg/mL) to measure binding interactions. In some embodiments, the binding affinity of an antibody, or antigen-binding portion thereof, to a presenting molecule-proTGFβ1 complex is determined using the protocol outlined in Table 14.
(§3) The protocol used to measure the affinity of the antibodies to the complexes provided herein is summarized in Table 14 below, and a summary list of affinity profiles of exemplary antibodies of the present disclosure is provided in Table 6 herein.

hLTBP1-proTGFβ1 [2] = target: T2, hLTBP1-proTGFβ1 (Homo sapiens, UniProt P01137); assay: Octet binding kinetics (BLI); conditions: Fab in solution, immobilized biotinylated antigen
T2 construct: biotin (the antigen complex is biotinylated); made in house
T2 sequence (P01137 30-390): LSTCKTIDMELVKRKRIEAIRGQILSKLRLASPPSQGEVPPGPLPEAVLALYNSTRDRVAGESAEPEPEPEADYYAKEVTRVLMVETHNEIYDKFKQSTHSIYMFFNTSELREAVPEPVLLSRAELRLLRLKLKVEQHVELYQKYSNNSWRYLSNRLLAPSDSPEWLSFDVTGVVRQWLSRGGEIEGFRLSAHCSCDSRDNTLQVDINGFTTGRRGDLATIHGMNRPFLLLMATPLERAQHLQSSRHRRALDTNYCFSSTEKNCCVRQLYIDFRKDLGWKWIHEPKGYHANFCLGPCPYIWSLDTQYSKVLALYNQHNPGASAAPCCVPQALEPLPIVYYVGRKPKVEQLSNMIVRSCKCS
T2 sequence (Q14766 347-1721 partner limits assumed): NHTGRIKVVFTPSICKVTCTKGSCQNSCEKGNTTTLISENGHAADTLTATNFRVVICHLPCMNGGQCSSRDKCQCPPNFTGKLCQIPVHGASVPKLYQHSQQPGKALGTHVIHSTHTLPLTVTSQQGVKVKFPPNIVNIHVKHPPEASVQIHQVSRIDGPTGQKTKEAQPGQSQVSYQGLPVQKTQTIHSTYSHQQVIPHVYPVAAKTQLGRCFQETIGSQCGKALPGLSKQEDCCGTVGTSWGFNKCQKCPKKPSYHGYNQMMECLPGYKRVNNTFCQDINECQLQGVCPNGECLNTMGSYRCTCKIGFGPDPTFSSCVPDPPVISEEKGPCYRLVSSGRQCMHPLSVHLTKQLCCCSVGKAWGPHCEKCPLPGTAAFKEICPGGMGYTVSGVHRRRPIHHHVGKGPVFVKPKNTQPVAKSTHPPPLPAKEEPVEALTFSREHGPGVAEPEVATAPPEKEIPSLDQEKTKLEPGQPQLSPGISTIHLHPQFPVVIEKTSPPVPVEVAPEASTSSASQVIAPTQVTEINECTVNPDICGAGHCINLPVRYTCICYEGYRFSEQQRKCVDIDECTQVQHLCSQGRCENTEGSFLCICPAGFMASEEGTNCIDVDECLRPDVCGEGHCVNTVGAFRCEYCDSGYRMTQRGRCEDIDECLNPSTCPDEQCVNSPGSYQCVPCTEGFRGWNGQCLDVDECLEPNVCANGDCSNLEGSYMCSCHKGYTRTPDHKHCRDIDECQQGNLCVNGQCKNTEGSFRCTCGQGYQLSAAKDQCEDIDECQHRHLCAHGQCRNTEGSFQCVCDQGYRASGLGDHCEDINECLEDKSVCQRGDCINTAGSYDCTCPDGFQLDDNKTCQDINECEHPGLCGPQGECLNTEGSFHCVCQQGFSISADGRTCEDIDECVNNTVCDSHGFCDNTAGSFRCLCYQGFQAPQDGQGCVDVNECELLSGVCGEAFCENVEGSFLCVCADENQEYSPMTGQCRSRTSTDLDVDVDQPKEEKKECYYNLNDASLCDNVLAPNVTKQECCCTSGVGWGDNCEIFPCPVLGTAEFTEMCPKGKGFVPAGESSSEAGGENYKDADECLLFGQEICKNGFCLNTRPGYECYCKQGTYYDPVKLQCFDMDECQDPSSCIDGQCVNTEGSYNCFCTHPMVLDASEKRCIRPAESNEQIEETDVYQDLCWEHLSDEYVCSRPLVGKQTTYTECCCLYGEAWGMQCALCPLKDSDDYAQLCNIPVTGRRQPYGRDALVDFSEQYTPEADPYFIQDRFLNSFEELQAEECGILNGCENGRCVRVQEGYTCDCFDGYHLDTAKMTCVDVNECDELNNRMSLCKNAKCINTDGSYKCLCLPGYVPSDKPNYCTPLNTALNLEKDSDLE
Procedure: as §1, §2, §3

hLTBP3-proTGFβ1 [3] = target: T3, hLTBP3-proTGFβ1 (Homo sapiens, UniProt P01137); assay: Octet binding kinetics (BLI); conditions: Fab in solution, immobilized biotinylated antigen
T3 construct: biotin (the antigen complex is biotinylated); made in house
T3 sequence (P01137 30-390): as the sequence (P01137 30-390) above
T3 sequence (Q9NS15 44-1303 partner): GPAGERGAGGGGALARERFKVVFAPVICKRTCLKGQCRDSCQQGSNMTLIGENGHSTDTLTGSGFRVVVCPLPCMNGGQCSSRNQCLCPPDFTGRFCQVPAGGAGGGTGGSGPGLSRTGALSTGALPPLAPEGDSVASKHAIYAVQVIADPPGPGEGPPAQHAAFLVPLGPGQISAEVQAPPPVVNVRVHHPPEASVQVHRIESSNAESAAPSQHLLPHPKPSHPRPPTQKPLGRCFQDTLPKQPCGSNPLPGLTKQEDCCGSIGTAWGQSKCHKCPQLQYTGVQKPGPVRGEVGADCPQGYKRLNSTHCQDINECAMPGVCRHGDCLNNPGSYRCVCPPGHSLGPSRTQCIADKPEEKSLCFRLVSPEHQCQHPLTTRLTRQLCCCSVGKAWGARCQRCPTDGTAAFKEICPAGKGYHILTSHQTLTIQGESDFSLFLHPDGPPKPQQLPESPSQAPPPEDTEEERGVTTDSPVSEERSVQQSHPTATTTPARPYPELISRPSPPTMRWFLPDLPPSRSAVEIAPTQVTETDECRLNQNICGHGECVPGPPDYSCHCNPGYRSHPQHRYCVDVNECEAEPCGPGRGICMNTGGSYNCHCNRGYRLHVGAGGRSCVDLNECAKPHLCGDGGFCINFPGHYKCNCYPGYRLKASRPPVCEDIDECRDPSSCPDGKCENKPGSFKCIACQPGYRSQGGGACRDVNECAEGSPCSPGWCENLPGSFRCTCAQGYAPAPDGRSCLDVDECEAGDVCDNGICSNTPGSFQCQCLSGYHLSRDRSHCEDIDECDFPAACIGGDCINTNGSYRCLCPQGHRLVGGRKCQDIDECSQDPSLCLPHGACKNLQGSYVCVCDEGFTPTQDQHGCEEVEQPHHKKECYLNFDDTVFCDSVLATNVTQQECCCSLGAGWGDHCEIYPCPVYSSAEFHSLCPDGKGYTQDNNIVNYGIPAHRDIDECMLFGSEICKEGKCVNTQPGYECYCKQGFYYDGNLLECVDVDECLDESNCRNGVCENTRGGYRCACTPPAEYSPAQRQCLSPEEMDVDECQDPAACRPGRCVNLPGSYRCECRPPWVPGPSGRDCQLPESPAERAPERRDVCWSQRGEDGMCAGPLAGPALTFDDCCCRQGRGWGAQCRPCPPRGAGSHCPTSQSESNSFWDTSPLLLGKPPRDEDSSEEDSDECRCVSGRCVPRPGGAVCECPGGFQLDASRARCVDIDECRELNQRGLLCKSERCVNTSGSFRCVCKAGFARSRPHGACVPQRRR
Procedure: as §1, §2, §3

hGARP-proTGFβ1 [4] = target: T1, hGARP-proTGFβ1; assay: Biacore SPR Fab binding kinetics
Procedure: (§4) Among these antibodies, Ab42, Ab46 and Ab50 were selected for further evaluation. Surface plasmon resonance (SPR) was used to measure binding kinetics using a BIACORE® system. Association and dissociation kinetics of Fab fragments of Ab42, Ab46, Ab50 and a reference antibody (shown as “Ref”), to antigen complexes were measured, and resulting equilibrium dissociation constants (KD) are provided below. Experiments were carried out with eight types of LLCs, namely, hLTBP1-proTGFβ1, mLTBP1-proTGFβ1, hLTBP3-proTGFβ1, mLTBP3-proTGFβ1, hGARP-proTGFβ1, mGARP-proTGFβ1, hLRRC33-proTGFβ1 and mLRRC33-proTGFβ1.
(§5) In vitro binding kinetics (on/off rates) were measured in Biacore-based assays and affinities were determined against all four known LLCs using both human and murine counterparts for each. Based on the association rate and dissociation rate, KD was calculated for each. In addition, relative affinities, as compared to the reference antibody as a benchmark, were calculated and expressed as “fold difference” relative to the reference antibody.
(§6) A BIACORE® system was employed to determine the monovalent binding affinity and the kinetic parameters for antigen binding of test antibodies. The binding kinetics were evaluated by surface plasmon resonance using Biacore 8K (GE Healthcare). A Biotin CAP sensor chip was used to capture the biotinylated antigens. Fabs at various concentrations (0 nM, 0.62 nM, 1.25 nM, 2.5 nM, 5 nM and 10 nM) were injected over the captured antigens. Multi-cycle kinetics was employed where each analyte concentration was injected in a separate cycle and the sensor chip surface was regenerated after each cycle. All the assays were carried out in freshly prepared 1× HBS-EP+ buffer (10 mM HEPES, 150 mM NaCl, 3 mM EDTA, 0.05% Tween20, pH 7.4). Data for all the analyte concentrations for each interaction were fit globally to a 1:1 binding model to obtain the kinetic parameters. The Sensorgram for 0 nM analyte concentration was used as reference.
(§7) The binding kinetics of antibody interactions with each of the antigen complexes, human LTBP1-ProTGFβ1, human LTBP3-ProTGFβ1, human GARP-ProTGFβ1, and human LRRC33-ProTGFβ1, were evaluated by surface plasmon resonance. Binding kinetics was evaluated by surface plasmon resonance using a BIACORE® 8K (GE) instrument. Biotinylated antigens were captured on a Biotin CAP chip and the Fab fragments of the antibodies were used as analytes. Sensorgrams for Fab binding at variable concentrations (0.6-10 nM) were globally fit to obtain the kinetic parameters.
(§8) Binding kinetics for the Fabs were evaluated against each of the four human antigens, LTBP1-ProTGFβ1, LTBP3-ProTGFβ1, GARP-ProTGFβ1, and LRRC33-ProTGFβ1. […] These experiments were repeated.

hLRRC33-proTGFβ1 = target: T4, hLRRC33-proTGFβ1 (Homo sapiens, UniProt P01137); assay: Biacore SPR Fab binding kinetics
T4 construct: biotin (the antigen complex is biotinylated); made in house
T4 sequence (P01137 30-390): as the sequence (P01137 30-390) above
T4 sequence (Q86YC3 with tags, fused parts or gaps partner limits assumed): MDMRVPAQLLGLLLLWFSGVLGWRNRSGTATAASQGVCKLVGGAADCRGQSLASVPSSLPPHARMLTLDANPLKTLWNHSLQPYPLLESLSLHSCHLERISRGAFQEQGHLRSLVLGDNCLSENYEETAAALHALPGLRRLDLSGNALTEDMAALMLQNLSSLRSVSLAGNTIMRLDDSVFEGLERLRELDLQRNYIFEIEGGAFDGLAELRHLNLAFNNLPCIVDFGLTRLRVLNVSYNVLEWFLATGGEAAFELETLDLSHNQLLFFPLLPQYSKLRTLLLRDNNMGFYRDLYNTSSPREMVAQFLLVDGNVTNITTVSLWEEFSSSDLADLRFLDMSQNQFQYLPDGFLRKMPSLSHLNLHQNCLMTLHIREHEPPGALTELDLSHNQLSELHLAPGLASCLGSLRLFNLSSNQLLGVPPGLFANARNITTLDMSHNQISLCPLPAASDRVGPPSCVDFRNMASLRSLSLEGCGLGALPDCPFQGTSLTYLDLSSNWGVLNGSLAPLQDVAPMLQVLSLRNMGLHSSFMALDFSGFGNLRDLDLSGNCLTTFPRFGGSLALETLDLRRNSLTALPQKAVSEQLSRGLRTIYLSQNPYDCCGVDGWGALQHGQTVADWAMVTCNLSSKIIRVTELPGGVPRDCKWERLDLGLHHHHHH
Procedure: as §4, §5, §6, §7, §8

hLTBP1-proTGFβ1 [5] = target: T2, hLTBP1-proTGFβ1; assay: Biacore SPR Fab binding kinetics
Procedure: as §4, §5, §6, §7, §8

hLTBP3-proTGFβ1 [6] = target: T3, hLTBP3-proTGFβ1; assay: Biacore SPR Fab binding kinetics
Procedure: as §4, §5, §6, §7, §8

mGARP-proTGFβ1 [7] = target: T5, mGARP-proTGFβ1 (Homo sapiens, UniProt P01137); assay: Biacore SPR Fab binding kinetics; parameters: species or system mouse; conditions: Table 10
T5 construct: biotin (the antigen complex is biotinylated); made in house
Procedure: as §4, §5, §6

mGARP-proTGFβ1 [8] = target: T6, mGARP-proTGFβ1; assay: Biacore SPR Fab binding kinetics; parameters: species or system mouse; conditions: Table 10
T6 construct: biotin (the antigen complex is biotinylated); made in house
T6 sequence (P01137 30-390): as the sequence (P01137 30-390) above
T6 sequence (G3XA59 18-628 partner limits assumed): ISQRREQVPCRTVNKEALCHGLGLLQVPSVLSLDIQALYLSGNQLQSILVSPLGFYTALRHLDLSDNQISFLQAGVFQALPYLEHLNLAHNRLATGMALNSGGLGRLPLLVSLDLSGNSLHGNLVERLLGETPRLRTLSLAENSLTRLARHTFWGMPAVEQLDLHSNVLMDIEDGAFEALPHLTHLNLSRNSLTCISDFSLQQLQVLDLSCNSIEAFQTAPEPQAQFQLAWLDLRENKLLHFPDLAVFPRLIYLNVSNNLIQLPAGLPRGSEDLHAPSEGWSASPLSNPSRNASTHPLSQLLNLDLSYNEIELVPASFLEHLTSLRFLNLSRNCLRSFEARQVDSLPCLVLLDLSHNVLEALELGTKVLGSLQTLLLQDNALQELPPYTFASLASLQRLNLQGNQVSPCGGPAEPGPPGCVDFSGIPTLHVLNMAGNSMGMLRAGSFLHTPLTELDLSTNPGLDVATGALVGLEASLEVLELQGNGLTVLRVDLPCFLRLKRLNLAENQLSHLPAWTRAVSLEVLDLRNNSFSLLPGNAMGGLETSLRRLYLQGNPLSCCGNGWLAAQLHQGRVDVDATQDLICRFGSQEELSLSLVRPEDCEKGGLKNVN
Procedure: as §4, §5, §6

mLRRC33-proTGFβ1 [9] = target: T7, mLRRC33-proTGFβ1 (Homo sapiens, UniProt P01137); assay: Biacore SPR Fab binding kinetics; parameters: species or system mouse; conditions: Table 12
T7 construct: biotin (the antigen complex is biotinylated); made in house
Procedure: as §4, §5, §6

mLRRC33-proTGFβ1 [10] = target: T8, mLRRC33-proTGFβ1; assay: Biacore SPR Fab binding kinetics; parameters: species or system mouse; conditions: Table 12
T8 construct: biotin (the antigen complex is biotinylated); made in house
Procedure: as §4, §5, §6

mLTBP1-proTGFβ1 [11] = target: T9, mLTBP1-proTGFβ1 (Homo sapiens, UniProt P01137); assay: Biacore SPR Fab binding kinetics; parameters: species or system mouse; conditions: Table 6
T9 construct: biotin (the antigen complex is biotinylated); made in house
Procedure: as §4, §5, §6

mLTBP1-proTGFβ1 [12] = target: T10, mLTBP1-proTGFβ1; assay: Biacore SPR Fab binding kinetics; parameters: species or system mouse; conditions: Table 6
T10 construct: biotin (the antigen complex is biotinylated); made in house
Procedure: as §4, §5, §6

mLTBP3-proTGFβ1 [13] = target: T11, mLTBP3-proTGFβ1 (Homo sapiens, UniProt P01137); assay: Biacore SPR Fab binding kinetics; parameters: species or system mouse; conditions: Table 8
T11 construct: biotin (the antigen complex is biotinylated); made in house
Procedure: as §4, §5, §6

mLTBP3-proTGFβ1 [14] = target: T12, mLTBP3-proTGFβ1; assay: Biacore SPR Fab binding kinetics; parameters: species or system mouse; conditions: Table 8
T12 construct: biotin (the antigen complex is biotinylated); made in house
Procedure: as §4, §5, §6

LLCs = assay: ELISA binding to LLCs; conditions: hIgG4; FIGS. 3 and 4
CDHFD mice = assay: choline-deficient high fat diet (CDHFD) liver fibrosis model; format: in vivo
[15] = tested on: Wistar-Han rats on a CDHF diet; assay: CDHFD target engagement study in rats; format: in vivo
Procedure: A similar study was run in 10-12 week old male Wistar-Han rats as follows: rats were fed on a CDHF diet for 12 weeks and then randomized. A first dose of the negative control (“HuNEG” IgG4, 30 mg/kg, n=6) or Ab46 (3, 10, and 30 mg/kg, n=8) was given on Day 1, and a second dose was given on Day 3. Treatment with a TGF-β type 1 receptor (ALK5) kinase inhibitor (ALK5i, 10 mg/kg) was used as a positive control. Tissue collection (left lateral lobe) was performed on Day 5. All rats had detectable serum antibody exposure. […] The study was repeated with a broader dose range: rats were fed on a CDHF diet for 12 weeks and then randomized. A single dose of 0.3 mg/kg, 1 mg/kg, 3 mg/kg, 10 mg/kg, or 30 mg/kg of Ab46 was given on Day 1, and tissue collection was performed after 48 hours.

T1 sequence (P01137 30-390): as the sequence (P01137 30-390) above
T1 sequence (Q14392 18-627 partner limits assumed): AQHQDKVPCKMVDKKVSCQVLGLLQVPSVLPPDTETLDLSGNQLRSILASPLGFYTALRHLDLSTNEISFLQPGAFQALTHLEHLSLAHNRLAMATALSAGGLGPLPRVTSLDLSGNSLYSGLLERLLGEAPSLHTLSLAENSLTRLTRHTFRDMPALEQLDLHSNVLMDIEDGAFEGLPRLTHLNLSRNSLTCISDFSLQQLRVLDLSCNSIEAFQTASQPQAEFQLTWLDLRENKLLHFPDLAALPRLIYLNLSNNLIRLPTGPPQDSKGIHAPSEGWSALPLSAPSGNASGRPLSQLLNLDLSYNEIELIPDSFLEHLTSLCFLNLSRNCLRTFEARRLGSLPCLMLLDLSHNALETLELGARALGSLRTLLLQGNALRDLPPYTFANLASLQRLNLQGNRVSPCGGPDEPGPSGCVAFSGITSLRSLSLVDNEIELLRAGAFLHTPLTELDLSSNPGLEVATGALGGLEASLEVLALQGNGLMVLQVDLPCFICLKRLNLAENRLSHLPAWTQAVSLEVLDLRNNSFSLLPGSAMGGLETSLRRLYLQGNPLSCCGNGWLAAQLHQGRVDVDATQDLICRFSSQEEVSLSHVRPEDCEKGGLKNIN

B1: Ab46: activation inhibitor of TGFβ1; H-CDR3 VSGHWDYD, L-CDR2 AASGLES, L-CDR3 QQTYGVPLT (Table 3) (antibody, V domains shown)
VH: EVQLLESGGGLVQPGGSLRLSCAASGFTFADYAMTWVRQAPGKGLEWVSAISGSGAATYFADSVKGRFTISRDNSKNTLYLQMNSLRAEDTAVYYCARVSSGHWDYDYWGQGTLVTVSS
VL: DIQLTQSPSSLSASVGDRVTITCRASQSISSYLNWYQQKPGKAPKLLIYAASGLESGVPSRFSGSGSGTDFTLTISSLQPEDFATYYCQQTYGVPLTFGGGTKVEIK
For B1, the KOFF (hGARP-proTGFβ1 [1]) was 0.00029 s⁻¹, the KON (hGARP-proTGFβ1 [1]) was 7.03E+05 M^−1/s^−1 and the KOFF (hLTBP1-proTGFβ1 [2]) was 4.98e-05 s⁻¹. It also gave a KON (hLTBP1-proTGFβ1 [2]) of 7.03E+05 M^−1/s^−1, a KOFF (hLTBP3-proTGFβ1 [3]) of 0.000438 s⁻¹ and a KON (hLTBP3-proTGFβ1 [3]) of 6.19E+05 M^−1/s^−1. For the same molecule, the KOFF (hGARP-proTGFβ1 [4]; Biacore 8K, Table 22) was 0.000359 s⁻¹, the kon (hGARP-proTGFβ1 [4]; Biacore 8K, Table 22) was 1.89e+06 M⁻¹ s⁻¹ and the KOFF (hGARP-proTGFβ1 [4]; Biacore, Table 9) was 0.000222 s⁻¹. The KON (hGARP-proTGFβ1 [4]; Biacore, Table 9) was 9.65E+05 M^−1/s^−1, the KOFF (hLRRC33-proTGFβ1; Biacore 8K, Table 22) was 0.000162 s⁻¹ and the kon (hLRRC33-proTGFβ1; Biacore 8K, Table 22) was 1.36e+06 M⁻¹ s⁻¹. The KOFF (hLRRC33-proTGFβ1; Biacore, Table 11) was 0.000128 s⁻¹, the KON (hLRRC33-proTGFβ1; Biacore, Table 11) was 1.52E+06 M^−1/s^−1 and the KOFF (hLTBP1-proTGFβ1 [5]; Biacore 8K, Table 22) was 8.52e-05 s⁻¹. It also gave a kon (hLTBP1-proTGFβ1 [5]; Biacore 8K, Table 22) of 2.44e+06 M⁻¹ s⁻¹, a KOFF (hLTBP1-proTGFβ1 [5]; Biacore, Table 5) of 8.81e-05 s⁻¹ and a KON (hLTBP1-proTGFβ1 [5]; Biacore, Table 5) of 1.75E+06 M^−1/s^−1. The “time bound to the antigen relative to the reference antibody” value (hLTBP1-proTGFβ1 [5]; SPR, FIG. 2, antigen not given) was “more than 50 times”, the “t1/2 (dissociation)” value (hLTBP1-proTGFβ1 [5]; SPR, FIG. 2, antigen not given, values fit the KOFF of Table 5) was “over 130 minutes” and the KOFF (hLTBP3-proTGFβ1 [6]; Biacore 8K, Table 22) was 0.000195 s⁻¹. It also gave a kon (hLTBP3-proTGFβ1 [6]; Biacore 8K, Table 22) of 1.78e+06 M⁻¹ s⁻¹, a KOFF (hLTBP3-proTGFβ1 [6]; Biacore, Table 7) of 0.000128 s⁻¹ and a KON (hLTBP3-proTGFβ1 [6]; Biacore, Table 7) of 1.00E+06 M^−1/s^−1. It also gave a KON (mGARP-proTGFβ1 [7]) of 1.02E+06 M^−1/s^−1, a KOFF (mGARP-proTGFβ1 [8]) of 0.000278 s⁻¹ and a KON (mLRRC33-proTGFβ1 [9]) of 1.26E+06 M^−1/s^−1. It also gave a KOFF (mLRRC33-proTGFβ1 [10]) of 0.000112 s⁻¹, a KON (mLTBP1-proTGFβ1 [11]) of 1.85E+06 M^−1/s^−1 and a KOFF (mLTBP1-proTGFβ1 [12]) of 9.87e-05 s⁻¹. For the same molecule, the KON (mLTBP3-proTGFβ1 [13]) was 1.20E+06 M^−1/s^−1, the KOFF (mLTBP3-proTGFβ1 [14]) was 0.000115 s⁻¹ and the “binding by ELISA” value (LLCs) was “Specific and selective binding”. The “% positive pSMAD2 nuclei in liver” value (CDHFD mice; 30 mg/kg on Day 1 and Day 3 after ten weeks of CDHFD) was “Significant reduction in % positive pSMAD2 nuclei”, the “ratio of phosphorylated versus total SMAD2/3 in the medial lobe (ELISA)” value (CDHFD mice; 3, 10 and 30 mg/kg on Day 1 and Day 3 after ten weeks of CDHFD, tissue Day 5, p<0.05) was “Significant reduction in pSMAD2/3” and the “reduction in % pSMAD2 nuclei compared to comparable doses of Ab2” value (CDHFD mice; data not shown) was “greater”. The “% pSMAD2-positive nuclei, left lateral lobe” value ([15]; 3, 10 and 30 mg/kg on Day 1 and Day 3 after 12 weeks of CDHFD, tissue Day 5) was “suppression of SMAD2 phosphorylation; also recorded: able to suppress phosphorylation of SMAD2”, the “reduction in percentage of pSMAD2-positive nuclei compared with Ab2” value ([15]; rat, in vivo) was “greater” and the “% pSMAD2-positive nuclei” value ([15]; single dose 10 mg/kg and 30 mg/kg on Day 1, tissue after 48 hours) was “appeared to fully suppress SMAD2 phosphorylation; also recorded: significant reduction of pSMAD2-positive nuclei”.
